# Source: patent publication US20240309103A1 (Regeneron, published 2024)
# T1: monkey NPR1 extracellular domain expressed with a C-terminal myc-myc-hexahistidine (mfNPR1-MMH) (monkey, UniProt P16066 33-473 (human entry))
# T1 construct: also called monomeric monkey NPR1
# T1 chain: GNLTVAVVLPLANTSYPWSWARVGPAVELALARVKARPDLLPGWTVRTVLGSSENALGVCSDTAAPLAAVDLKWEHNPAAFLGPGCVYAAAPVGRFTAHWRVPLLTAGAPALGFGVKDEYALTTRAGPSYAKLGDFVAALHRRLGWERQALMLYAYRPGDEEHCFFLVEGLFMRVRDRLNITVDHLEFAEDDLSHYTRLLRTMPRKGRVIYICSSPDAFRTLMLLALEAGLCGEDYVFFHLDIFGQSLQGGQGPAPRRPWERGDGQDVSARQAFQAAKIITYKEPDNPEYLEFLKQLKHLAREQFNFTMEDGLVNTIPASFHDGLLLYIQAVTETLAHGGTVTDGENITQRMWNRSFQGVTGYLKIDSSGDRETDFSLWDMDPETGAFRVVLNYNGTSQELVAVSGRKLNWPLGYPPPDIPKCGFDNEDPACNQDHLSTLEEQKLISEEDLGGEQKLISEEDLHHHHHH
# T2: human NPR1 extracellular domain expressed with a C-terminal mouse IgG2a (hNPR1-mFc) (human)
# T2 construct: also called hNPR1-Fc; human NPR1 dimer
# T2 chain: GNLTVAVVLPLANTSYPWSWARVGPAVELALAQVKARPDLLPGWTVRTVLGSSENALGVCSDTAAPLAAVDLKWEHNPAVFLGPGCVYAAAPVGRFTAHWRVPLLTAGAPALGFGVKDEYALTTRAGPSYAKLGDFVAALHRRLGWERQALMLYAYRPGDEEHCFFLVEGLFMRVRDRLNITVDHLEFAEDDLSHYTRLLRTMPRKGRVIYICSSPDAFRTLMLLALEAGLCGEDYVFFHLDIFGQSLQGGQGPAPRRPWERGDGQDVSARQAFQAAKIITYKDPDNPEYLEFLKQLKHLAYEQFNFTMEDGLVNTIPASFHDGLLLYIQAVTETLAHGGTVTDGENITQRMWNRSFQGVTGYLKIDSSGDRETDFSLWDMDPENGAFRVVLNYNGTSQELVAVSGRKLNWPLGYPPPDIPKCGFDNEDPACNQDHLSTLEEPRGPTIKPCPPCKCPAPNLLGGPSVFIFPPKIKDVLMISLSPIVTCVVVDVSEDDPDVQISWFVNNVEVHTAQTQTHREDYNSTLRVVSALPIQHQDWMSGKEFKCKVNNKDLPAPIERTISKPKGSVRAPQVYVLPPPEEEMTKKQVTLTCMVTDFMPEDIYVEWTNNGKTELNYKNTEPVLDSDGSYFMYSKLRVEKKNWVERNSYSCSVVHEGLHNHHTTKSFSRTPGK
# T3: mfNPR1-mFc (monkey)
# T3 construct: also called dimeric monkey NPR1
# T3 chain: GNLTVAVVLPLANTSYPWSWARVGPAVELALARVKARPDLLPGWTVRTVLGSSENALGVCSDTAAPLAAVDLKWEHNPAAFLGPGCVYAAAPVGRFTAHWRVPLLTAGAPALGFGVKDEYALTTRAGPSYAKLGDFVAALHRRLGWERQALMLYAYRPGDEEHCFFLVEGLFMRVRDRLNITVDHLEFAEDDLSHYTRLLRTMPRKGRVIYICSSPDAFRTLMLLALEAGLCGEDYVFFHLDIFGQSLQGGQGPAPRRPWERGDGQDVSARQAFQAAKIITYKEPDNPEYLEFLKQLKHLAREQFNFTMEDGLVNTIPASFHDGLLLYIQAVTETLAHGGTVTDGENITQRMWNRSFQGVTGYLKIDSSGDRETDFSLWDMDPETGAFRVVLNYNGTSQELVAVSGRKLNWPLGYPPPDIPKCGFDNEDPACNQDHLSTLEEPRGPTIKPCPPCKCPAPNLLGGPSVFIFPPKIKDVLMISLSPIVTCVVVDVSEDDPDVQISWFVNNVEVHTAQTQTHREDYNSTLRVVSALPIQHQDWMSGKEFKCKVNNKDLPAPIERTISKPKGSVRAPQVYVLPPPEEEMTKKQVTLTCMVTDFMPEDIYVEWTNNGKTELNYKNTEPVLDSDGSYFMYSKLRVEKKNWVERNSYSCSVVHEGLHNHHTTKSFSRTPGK
# What was measured:
# [1] = target: T1, monkey NPR1 extracellular domain …; assay: SPR, mAb captured, 25 C
# Description: (§1) Equilibrium dissociation constant (KD) for different NPR1 reagents binding to purified anti-NPR1 monoclonal antibodies (mAbs) were determined using a real-time surface plasmon resonance based Biacore 4000 biosensor. All binding studies were performed in 10 mM HEPES, 150 mM NaCl, 3 mM EDTA, and 0.05% v/v Surfactant Tween-20, pH 7.4 (HBS-ET) running buffer at 25° C. and 37° C. The Biacore CM5 sensor chip surface was first derivatized by amine coupling with either mouse anti-human Fc specific mAb (GE Healthcare, #BR100839) or goat anti-human Fcy specific polyclonal antibody (Jackson ImmunoResearch Laboratories, #BR-1008-39) to capture anti-NPR1 mAbs.
# [2] = target: T4, mouse NPR1 extracellular domain expressed with a C-terminal myc-myc-hexahistidine (mNPR1-MMH) (mouse, UniProt P18293 29-469); assay: SPR, mAb captured, 25 C
# Description: as §1
# [3] = target: T2, human NPR1 extracellular domain …; assay: SPR, mAb captured, 25 C
# Description: as §1
# [4] = target: T1, monkey NPR1 extracellular domain …; assay: SPR, mAb captured, 37 C
# Description: as §1
# [5] = target: T4, mouse NPR1 extracellular domain …; assay: SPR, mAb captured, 37 C
# Description: as §1
# Target sequence in this assay (P18293 other isoform, or with tags, fused parts or gaps): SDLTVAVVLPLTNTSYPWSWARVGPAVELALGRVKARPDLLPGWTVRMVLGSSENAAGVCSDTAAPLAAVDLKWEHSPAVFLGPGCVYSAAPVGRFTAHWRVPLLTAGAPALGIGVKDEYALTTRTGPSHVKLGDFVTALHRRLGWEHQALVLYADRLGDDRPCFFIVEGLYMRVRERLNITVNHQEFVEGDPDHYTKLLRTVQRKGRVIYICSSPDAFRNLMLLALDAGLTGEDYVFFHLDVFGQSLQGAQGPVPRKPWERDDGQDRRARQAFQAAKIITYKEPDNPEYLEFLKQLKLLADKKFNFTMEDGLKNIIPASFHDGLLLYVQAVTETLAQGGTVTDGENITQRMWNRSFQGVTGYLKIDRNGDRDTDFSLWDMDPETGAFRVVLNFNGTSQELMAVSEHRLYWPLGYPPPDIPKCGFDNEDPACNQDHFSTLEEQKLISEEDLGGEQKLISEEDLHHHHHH
# [6] = target: T2, human NPR1 extracellular domain …; assay: SPR, mAb captured, 37 C
# Description: as §1
# [7] = target: T5, hNPR1-mFc:hANP or hNPR1-hFc:hANP complex (human, UniProt P01160 124-151); assay: SPR, mAb captured, 25C
# T5 construct: also called human NPR1 complexed to ANP
# Procedure, shortened: (§2)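 Read-out is KD from real-time SPR (Biacore 4000). Purified mAbs sat on an anti-human Fc capture surface (mouse mAb or goat anti-Fcγ polyclonal) on CM5. Runs used HBS-ET: 10 mM HEPES, 150 mM NaCl, 3 mM EDTA, 0.05% Tween-20, pH 7.4.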
# [8] = target: T6, hNPR1-mFc:hBNP complex (human, UniProt P16860 103-134); assay: SPR, mAb captured, 25C
# T6 construct: also called human NPR1 complexed to BNP
# Procedure, shortened: as §2
# [9] = target: T3, mfNPR1-mFc; assay: SPR, mAb captured, 25C
# Procedure, shortened: as §2
# [10] = target: T7, mfNPR1-mFc:hANP complex (monkey; human, UniProt P01160 124-151); assay: SPR, mAb captured, 25C
# T7 construct: also called monkey NPR1 complexed to ANP
# Procedure, shortened: as §2
# [11] = target: T8, mfNPR1-mFc:hBNP complex (monkey; human, UniProt P16860 103-134); assay: SPR, mAb captured, 25C
# T8 construct: also called monkey NPR1 complexed to BNP
# Procedure, shortened: as §2
# [12] = target: T5, hNPR1-mFc:hANP or hNPR1-hFc:hANP complex; assay: SPR, mAb captured, 37C
# Procedure, shortened: as §2
# [13] = target: T6, hNPR1-mFc:hBNP complex; assay: SPR, mAb captured, 37C
# Procedure, shortened: as §2
# [14] = target: T3, mfNPR1-mFc; assay: SPR, mAb captured, 37C
# Procedure, shortened: as §2
# [15] = target: T7, mfNPR1-mFc:hANP complex; assay: SPR, mAb captured, 37C
# Procedure, shortened: as §2
binder,measurement,setting,value
"mAb22810 (antibody, V domains shown) VH: EVQLVESGGGLVKPGGSLRLSCVVSGFTFRIYTMNWVRQAPGKGLEWVASISSSSSFINYADSLKGRFTISRDNAQNSLYLQMNSLRAEDTAIYYCARAAGNDVLPGRMDVWGQGTSVTVSS VL: EIVLTQSPGTLSLSPGERATLSCRASQSVSSNYLAWYQQKPGQVPSLLIYGASSRATGIPDRFSGSGSGTDFTLTITRLEPEDFAVYYCQQYGISPWTFGQGTKVEIK",100 nM Ag Bound (RU),[1],1 RU
same,binding result,[1],no binding (tested: 100 nM)
same,100 nM Ag Bound (RU),[2],-1 RU
same,100 nM Ag Bound (RU),[3],4 RU
same,100 nM Ag Bound (RU),[4],0 RU
same,100 nM Ag Bound (RU),[5],-2 RU
same,100 nM Ag Bound (RU),[6],9 RU
"mAb25508 (antibody, human IgG4, V domains shown) VH: EVQLVESGGGVVRPGGSLRLSCAASGFNVDDYGMSWVRQIPGKGLEWISGINWNGGRIYYADSMKGRITISRDNAKNSLYLQMNSLRAEDTALYHCVRDQWLVRGLDYWGQGTLVTVSS VL: DIQMTQSPSSLSASVGDRVTITCRASQGIYNYLAWFQQKPGKAPKSLIYAASSLQSGVPSKFSGSGSGTDFTLTISSLQPEDFATYYCQQYNTYPYTFGQGTKLEIK",100 nM Ag Bound (RU),[7],199 RU
same,Kd,[7],0.34 nM
same,koff,[7],8.97e-05 s⁻¹
same,kon,[7],264000 M⁻¹ s⁻¹
same,t½,[7],2.15 h
same,100 nM Ag Bound (RU),[8],200 RU
same,Kd,[8],0.343 nM
same,koff,[8],8.57e-05 s⁻¹
same,kon,[8],250000 M⁻¹ s⁻¹
same,t½,[8],2.24 h
same,100 nM Ag Bound (RU),[9],230 RU
same,Kd,[9],0.116 nM
same,koff,[9],5.98e-05 s⁻¹
same,kon,[9],515000 M⁻¹ s⁻¹
same,t½,[9],3.22 h
same,100 nM Ag Bound (RU),[10],224 RU
same,Kd,[10],0.233 nM
same,koff,[10],7.32e-05 s⁻¹
same,kon,[10],314000 M⁻¹ s⁻¹
same,t½,[10],2.63 h
same,100 nM Ag Bound (RU),[11],229 RU
same,Kd,[11],0.29 nM
same,koff,[11],8.91e-05 s⁻¹
same,kon,[11],308000 M⁻¹ s⁻¹
same,t½,[11],2.16 h
same,100 nM Ag Bound (RU),[12],230 RU
same,Kd,[12],0.506 nM
same,koff,[12],0.000148 s⁻¹
same,kon,[12],293000 M⁻¹ s⁻¹
same,t½,[12],1.3 h
same,100 nM Ag Bound (RU),[13],236 RU
same,Kd,[13],0.466 nM
same,koff,[13],0.000164 s⁻¹
same,kon,[13],352000 M⁻¹ s⁻¹
same,t½,[13],1.17 h
same,100 nM Ag Bound (RU),[14],268 RU
same,Kd,[14],0.132 nM
same,koff,[14],8.36e-05 s⁻¹
same,kon,[14],634000 M⁻¹ s⁻¹
same,t½,[14],2.3 h
same,100 nM Ag Bound (RU),[15],262 RU
same,Kd,[15],0.355 nM
same,koff,[15],0.000146 s⁻¹
same,kon,[15],411000 M⁻¹ s⁻¹
same,t½,[15],1.32 h
